According to paper PMC9864903, “Imaging of the Glucose-Dependent Insulinotropic Polypeptide Receptor Using a Novel Radiolabeled Peptide Rationally Designed Based on Endogenous GIP and Synthetic Exendin-4 Sequences” (Pharmaceuticals, 2022):
“Also recorded” adds a separate entry of the source.

Key:
[1] = dynamic PET/CT organ distribution in pig; assay type: in vivo; conditions: infusion of GIP(1-42) 20 pmol/kg/min
From the text: An anesthetized pig (25 kg) was positioned to include the abdomen with pancreas in the center of the 25 cm axial field of view of a Discovery MI PET/CT scanner (GE Healthcare, MI, USA) by assistance of a low-dose CT scout view (140 kV, 10 mAs). The details of the animal handling, preparation, and anesthesia have been previously described.
Attenuation correction was acquired by a 140 kV, 10–80 mA CT examination. The administration of [^68Ga]Ga-C803-GIP (17.3 MBq, corresponding to approximately 2.5 μg peptide or 0.10 μg/kg) was made upon the start of the baseline dynamic scan lasting for 90 min (30 frames; […]). The dynamic scan was followed by a static scan over the brain from 90–120 min post administration. A second PET investigation was performed after an additional 2 h to allow the radioactivity from the first scan to fade from the circulation by decay and excretion.
The GIP(1-42) infusion was continued until the end of the PET scan. Finally, after the last PET scan, a contrast-enhanced CT scan was performed to assist delineation of the tissues, e.g., the pancreas.
Segmentation of the tissues of interest (descending aorta, pancreas, spleen, kidney, liver, and muscle) was performed in PMOD (PMOD Technologies), and time–activity curves were expressed as SUV as detailed above.

[2] = test system: GIPR; conditions: affinity for the GIPR; cited from earlier work
From the text: This effect may be due to the exchange of Aib(2) to A(2), L(10) to Y(10), R(16) to K(16), E(20) to Q(20), L(27) to K(27), K(31) to H(31), and the addition of the C-terminal tail ((32-39); […]). [^68Ga]Ga-C803-GIP was furthermore evaluated for its affinity, internalization, and binding specificity towards the GIPR.

[3] = chemical stability of Ga-C803-GIP at ambient temperature and pH 4.5; assay type: physicochemical; conditions: for at least one week at ambient temperature and pH 4.5
From the text: C803-GIP has a sequence partially similar to that of hGIP(1-30), wherein L-Alanine at position 2 was exchanged to D-Alanine, Methionine at position 14 was exchanged to Leucine, Aspartic acid at position 21 was exchanged to Glutamic acid, Valine at position 23 was exchanged to Isoleucine, Asparagine at position 24 was exchanged to Glutamic acid, Leucine at position 27 was exchanged to Lysine, and both Glutamine at position 29 and Lysine at position 30 were exchanged to Glycine. The sequence was amended with Histidine (31), Proline (32), and seven more residues corresponding to those found in exendin-4 (Serine(33)-Glycine(34)-Alanine(35)-Proline(36)-Proline(37)-Proline(38)-Serine(39)). The peptide sequence was conjugated via terminal Serine(39) to a DOTA chelator moiety functionalized with a vinyl sulfone linker and cysteine amide (Table 1). C803-GIP was loaded with stable isotopes of gallium to yield Ga-C803-GIP for the subsequent investigation of the stability and biological activity. Ga-C803-GIP was stable with a purity of over 95% for at least one week at ambient temperature and pH 4.5.

[4] = pharmacokinetics in rats after subcutaneous administration; assay type: in vivo; conditions: rat
From the text: The potency of the peptide conjugate in terms of EC50 was studied using C803-GIP and C803-GIP loaded with a stable isotope of gallium (Ga-C803-GIP) in HEK293 cells transfected with the GIPR from human, monkey (NHP), and rat species. In addition, the cross-reactivity was studied in HEK293 cells transfected with the GLP1-R and GCGR. […] In contrast, the EC50 for the rat GIPR was one order of magnitude poorer. […] The pharmacokinetic properties were investigated in vivo in rats. […] The average plasma concentration calculated to the infinity (AUCinf) was 1370 h*ng/mL.
Figure 1 Plasma concentration of Ga-C803-GIP measured at 3, 6, 9.6, 19.8, 30, 60, 120, and 240 min post subcutaneous administration in rats (n = 3). The error bars are not seen due to the low SD values.

YAEGTFISDYSIAMDKIHQQDFVNWLLAQKGKKNDWKHNITQ [GIP(1-42), reference compound]
effect of GIP(1-42) on uptake of [68Ga]Ga-C803-GIP in tissues [1]: did not reduce the uptake; also recorded: did not affect the uptake pattern

[Lys37(111In-DTPA)]N-acetyl-GIP1-42
IC50 [2]: 4.8 µM

CC[C@H](C)[C@H](NC(=O)[C@H](CO)NC(=O)[C@H](Cc1ccc(O)cc1)NC(=O)[C@H](CC(=O)O)NC(=O)[C@H](CO)NC(=O)[C@@H](NC(=O)[C@H](Cc1ccccc1)NC(=O)[C@@H](NC(=O)CNC(=O)[C@H](CCC(=O)O)NC(=O)[C@@H](C)NC(=O)[C@@H](N)Cc1ccc(O)cc1)[C@@H](C)O)[C@@H](C)CC)C(=O)N[C@@H](C)C(=O)N[C@@H](CC(C)C)C(=O)N[C@@H](CC(=O)O)C(=O)N[C@@H](CCCCN)C(=O)N[C@H](C(=O)N[C@@H](Cc1c[nH]cn1)C(=O)N[C@@H](CCC(N)=O)C(=O)N[C@@H](CCC(N)=O)C(=O)N[C@@H](CCC(=O)O)C(=O)N[C@@H](Cc1ccccc1)C(=O)N[C@H](C(=O)N[C@@H](CCC(=O)O)C(=O)N[C@@H](Cc1c[nH]c2ccccc12)C(=O)N[C@@H](CC(C)C)C(=O)N[C@@H](CCCCN)C(=O)N[C@@H](C)C(=O)NCC(=O)NCC(=O)N[C@@H](Cc1c[nH]cn1)C(=O)N1CCC[C@H]1C(=O)N[C@@H](CO)C(=O)NCC(=O)N[C@@H](C)C(=O)N1CCC[C@H]1C(=O)N1CCC[C@H]1C(=O)N1CCC[C@H]1C(=O)N[C@@H](CO)C(=O)N[C@@H](CSCCS(=O)(=O)CCN1CCN(CC(=O)O)CCN(CC(=O)O)CCN(CC(=O)O)CC1)C(N)=O)[C@@H](C)CC)[C@@H](C)CC [Ga-C803-GIP]
purity on storage (stability) [3]: over 95%
half-life ([4]; plasma, sc, 1 mg/kg, n = 3): 22.8 min
AUCinf ([4]; 1 mg/kg, n = 3): 1370 ng·h/mL
plasma clearance (CL) ([4]; 1 mg/kg, n = 3): 12.2 mL/min/kg
plasma concentration at the 240 min time point ([4]; n = 3, 240 min post administration): below the limit of detection
